Experiments:
[1] = biological target: SB(L8A)-SNAC, peptide in which D-Leu at the C-terminus of SB-SNAC is substituted with D-Ala
[2] = biological target: SB(L8F)-SNAC, peptide in which D-Leu at the C-terminus of SB-SNAC is substituted with D-Phe
[3] = biological target: substrate peptide 3 (SB-SNAC), SNAC body indicated with 3 in FIG. 2a
[4] = biological target: shorter peptide (7 amino acid residues, SNAC body)
[5] = biological target: substrate in which Ile at the N-terminus of the compound indicated in 3 of FIG. 2a is substituted with L-Trp
[6] = biological target: methyl ester of the compound indicated with 3 in FIG. 2a
[7] = biological target: substrate peptide (SNAC body) shown in FIG. 4
[8] = biological target: longer peptide (11 amino acid residues, SNAC body)

B1: peptide cyclization enzyme from Goodfellowiella coeruleoviolacea NBRC 14988 (protein)
chain: VPNEQDLGSLLARLAERHRVPGAQLSVCHDSASVTVVTGRERHGAATPVTARSAFPLGSLTKPFTAALAMVLVADGDLDLDEPVAGYHPGVTLRRLLSHTAGLESNVDEQAAAGVPRRRWVTRYPARLAPEHPPGTVFSYSNVGYLLAGHLVEEVTGLDWAEAVESVLLRPLGITPAFVVGAAGSRGVVCGHVLTDDRVLPVAEQVMPEVEAPNGALALSSADLLAFAALFSANSPAPDVLDPATAALMCQDQLADVRVGPYGMADGWGLGWARYRGAGADWFGHDGTGDGTSCHLRFDPERGTAVALTTNGSTGAALWRELCAELAERHVLPPEWGREPGEATPVAGPPDGAGHYANGPAEFVVTRQDDDGLALVLDGAQAVPLTCLPDLRFQLRLGTTVLSGRFLRDPDTGGIDHIQVTGRLARRRQVTG
For B1, the “peptide cyclization reaction, HPLC” value [1] was “the two enzymes produced cyclized peptides from three substrates”, the “peptide cyclization reaction, HPLC” value [2] was “the two enzymes produced cyclized peptides from three substrates” and the “peptide cyclization reaction, HPLC” value [3] was “the two enzymes produced cyclized peptides from three substrates”.

B2: peptide cyclization enzyme from Streptomyces noursei NBRC 15452 (protein)
chain: VHGDSADPAGYGAGDGSPLDLDLDRLARDCDVAGGQLAVHHHGVLETWEFGEEEPGAGRPVHSATAFPYGSTTKVCTATSVLQLVGDGDLDLDRPVREWLPEAGTVPEARRDHPALAATLRQLLSHTAGLPSDHDDADASSLRRWLTGFLAAPADARPAPGTFSYSNVGYGIAGRVVESVTGLPWYEAVRDYLLRPLGTAITALPAEPGSLPAGGLAGSAADLVRLGLLHIAEPGRPDLADPAALGEATRPTAGADPFGLADGWGPGLGHFGPAEDRWLGHDGTLDGATCHLRIHPRRGTVIALTTNSPTGQALWDAVVGALRDAGIDVGVYRPAPPPSLAQGGAPAGAAAFADCTGTYRNGDLAVTVGLDGPHLVLELPGGARELAEPLARRTFAARGAGAFLGRFAVDARTGAVHALQYSGRTLLRDTGRAHGARPH
B2 was tested, and the “peptide cyclization reaction, HPLC” value [1] was “the two enzymes produced cyclized peptides from three substrates”, the “peptide cyclization reaction, HPLC” value [2] was “the two enzymes produced cyclized peptides from three substrates” and the “peptide cyclization reaction, HPLC” value [3] was “the two enzymes produced cyclized peptides from three substrates”.

B3: recombinant SurE protein (peptide cyclization enzyme derived from Streptomyces albidoflavus NBRC 12854) (protein)
chain: VGAEGAERDAVGALFEELVREHRVTGAQLSVYRDGALSEYATGLASVRTGEPVTPRTGFPFGSVTKFLTAELVMQFVCDGDLDLDDPLAGLLPDLGRAAGPPLGTATVRQLLSHTAGVVDSIEYDEMRGPSYRRFAAACARQPALFPPGLAFSYSNTGYCLLGAVIEAASGMDWWTAMDSCLLRPLGIEPAFLHDPRPGQGGAARPVAEGHALRAGGERAEHVDHMASLSLAAAGGLVGSATDLVTAARPHLADRKTFAQHDLLPEDAVLAMRTCVPDAEPFGLADGWGLGLMRHGTGDGAWYGHDGAVGGASCNLRIHPDRSLALALTANSTAGPKLWEALVARLPEAGLDVGHYALPVPDSAPLAPDAGHLGTYANGDLELMVTHDAAGDLFLTRESYSDYRLSLHEDDLFVARSGEPGALPITGRFVREHPAGPVALLQYGGRAMHRL
In the case of B3, the “peptide cyclization reaction (data not shown)” value [4] is reported as “a cyclized product was observed to be obtained by the recombinant SurE”, the “kcat/KM of the cyclization reaction relative to substrate 3 of FIG. 2a” value [5] is reported as “two to five times higher than the kcat/KM value obtained when the compound indicated with 3 in FIG. 2a was used as a substrate” and the peptide cyclization reaction [6] is reported as “even when the methyl ester was used as a substrate, the same cyclized product as in the case of using the SNAC body was produced”. For the same protein, the “kcat/KM of the cyclization reaction relative to substrate 3 of FIG. 2a” value [2] was “two to five times higher than the kcat/KM value obtained when the compound indicated with 3 in FIG. 2a was used as a substrate”, the “peptide cyclization reaction, HPLC and mass spectrometry (extracted ion chromatogram)” value [7] was “a product having a molecular weight corresponding to the molecular weight (m/z 1038.8) of a cyclized product of Surugamide F (cyclic Surugamide F) was detected” and the “peptide cyclization reaction (data not shown)” value [8] was “a cyclized product was observed to be obtained by the recombinant SurE”. The “peptide cyclization reaction, HPLC analysis of the product” value [3] was “cyclized the substrate peptide to give a cyclized peptide 1 (Surugamide B) as a single product”.

Source: patent US20210139917
